Data reported in US20120058051A1 (US Dept. of Health and Human Services, published 2012).

What was measured:
[1] = biological target: T1, Fc-hROR1(d2d3) (human, UniProt Q01973 161-406, limits assumed); experiment: ELISA, coated domain construct
T1 construct: domain: d2-Frizzled and d3-Kringle; Order from the name; not shown: human Fc region

[2] = biological target: T2, Fc-hROR1(d2) (human, UniProt Q01973 161-307, limits assumed); experiment: ELISA, coated domain construct
T2 construct: domain: d2-Frizzled; Order from the name; not shown: human Fc region

[3] = biological target: T3, Fc-hROR(d3) (human, UniProt Q01973 308-406, limits assumed); experiment: ELISA, coated domain construct
T3 construct: domain: d3-Kringle; Order from the name; not shown: human Fc region

[4] = biological target: T4, human ROR1-ECD (ROR1-derived extracellular domain fragment without Fc) (human, UniProt Q01973 30-406); experiment: SPR (BIACORE X100), ROR1-ECD coupled to CM5 chip, bivalent IgG injected, 1:1 Langmuir model
T4 construct: extracellular domain; also called hROR1ECD; ROR-ECD
T4 sequence (Q01973 30-406): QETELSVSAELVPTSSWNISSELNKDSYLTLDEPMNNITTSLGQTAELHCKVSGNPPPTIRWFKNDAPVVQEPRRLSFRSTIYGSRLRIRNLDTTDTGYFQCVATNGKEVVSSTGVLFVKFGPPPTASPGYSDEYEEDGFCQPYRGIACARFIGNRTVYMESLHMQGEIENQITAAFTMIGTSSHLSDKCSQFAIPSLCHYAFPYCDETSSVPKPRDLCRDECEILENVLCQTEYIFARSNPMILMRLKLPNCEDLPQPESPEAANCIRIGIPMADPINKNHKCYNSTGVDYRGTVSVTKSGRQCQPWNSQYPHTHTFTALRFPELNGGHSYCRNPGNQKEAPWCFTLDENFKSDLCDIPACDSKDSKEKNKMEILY

T1 sequence (Q01973 161-406 limits assumed): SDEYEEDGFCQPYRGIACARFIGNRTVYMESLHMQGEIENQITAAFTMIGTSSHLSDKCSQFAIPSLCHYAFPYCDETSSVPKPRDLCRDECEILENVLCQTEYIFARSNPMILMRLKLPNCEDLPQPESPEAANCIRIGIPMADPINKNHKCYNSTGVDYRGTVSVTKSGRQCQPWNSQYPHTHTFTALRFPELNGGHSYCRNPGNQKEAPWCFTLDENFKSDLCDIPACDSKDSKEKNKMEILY
T2 sequence (Q01973 161-307 limits assumed): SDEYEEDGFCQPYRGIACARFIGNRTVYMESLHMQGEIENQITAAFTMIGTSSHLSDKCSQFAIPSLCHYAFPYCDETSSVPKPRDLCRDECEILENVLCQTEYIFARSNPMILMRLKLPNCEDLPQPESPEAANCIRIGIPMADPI
T3 sequence (Q01973 308-406 limits assumed): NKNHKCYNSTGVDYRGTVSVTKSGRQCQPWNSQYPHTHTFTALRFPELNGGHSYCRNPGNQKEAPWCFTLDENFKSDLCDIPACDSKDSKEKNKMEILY

B1: mouse monoclonal antibody (mAb) 2A2 (antibody, mouse IgG1, V domains shown)
VH: QVQLQQSGAELVRPGASVTLSCKASGYTFSDYEMHWVIQTPVHGLEWIGAIDPETGGTAYNQKFKGKAILTADKSSSTAYMELRSLTSEDSAVYYCTGYYDYDSFTYWGQGTLVTVSA
VL: DIVMTQSQKIMSTTVGDRVSITCKASQNVDAAVAWYQQKPGQSPKLLIYSASNRYTGVPDRFTGSGSGTDFTLTISNMQSEDLADYFCQQYDIYPYTFGGGTKLEIK
notes: also called mouse mAb 2A2
B1: no binding [1]; no binding [2]; no binding [3]. The Kd [4] was 0.1 nM.
